Tests used:
[1] = biological target: unmodified histone H3 N-terminal tail (residues 1 to 20) (UniProt P68431)
[2] = biological target: H3 (3–19)_([change]-[change])-Ub_([change]) (UniProt P68431); assay: crystal structure
[3] = biological target: H3 (3–19)_([change]-[change]) (UniProt P68431); assay: crystal structure

Sequence of Clr4 lysine methyltransferase (KMT) domain (residues 192 to 490) (O60016 192-490): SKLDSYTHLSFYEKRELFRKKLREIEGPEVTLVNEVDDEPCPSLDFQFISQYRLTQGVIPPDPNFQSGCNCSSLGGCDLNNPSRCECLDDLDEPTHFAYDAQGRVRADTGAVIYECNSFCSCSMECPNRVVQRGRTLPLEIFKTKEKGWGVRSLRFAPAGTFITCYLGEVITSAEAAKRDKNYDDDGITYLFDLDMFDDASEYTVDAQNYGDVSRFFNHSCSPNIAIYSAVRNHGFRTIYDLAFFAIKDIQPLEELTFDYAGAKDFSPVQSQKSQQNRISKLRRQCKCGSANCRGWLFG
Sequence of full-length Clr4 (residues 1 to 490) (O60016 whole entry, the tested form may be a part): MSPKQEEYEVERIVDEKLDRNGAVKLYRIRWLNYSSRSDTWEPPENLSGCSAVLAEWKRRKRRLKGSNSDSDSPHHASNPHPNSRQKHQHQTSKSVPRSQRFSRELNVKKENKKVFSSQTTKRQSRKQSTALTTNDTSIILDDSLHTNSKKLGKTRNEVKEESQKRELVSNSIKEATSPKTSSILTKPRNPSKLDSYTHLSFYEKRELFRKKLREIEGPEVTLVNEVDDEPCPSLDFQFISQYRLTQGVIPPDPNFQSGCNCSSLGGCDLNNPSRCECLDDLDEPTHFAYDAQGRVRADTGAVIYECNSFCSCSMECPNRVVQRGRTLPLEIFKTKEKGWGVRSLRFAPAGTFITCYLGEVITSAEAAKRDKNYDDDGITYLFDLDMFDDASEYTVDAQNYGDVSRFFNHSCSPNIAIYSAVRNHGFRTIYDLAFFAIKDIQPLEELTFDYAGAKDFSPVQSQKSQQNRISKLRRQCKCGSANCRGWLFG

Row | Km, Michaelis-Menten kinetics of H3K9 methylation (MTase-Glo, SAH production) [1] | stoichiometry N [2] | stoichiometry N [3] | Substance
1 | 26.5 µM |  |  | full-length Clr4 K455A/K472A (automethylation-mimicking) (from UniProt O60016 1-490) (enzyme)
2 |  | 1 | 1 | Clr4 lysine methyltransferase (KMT) domain (residues 192 to 490) (from UniProt O60016 192-490) (domain or fragment)
3 | 75.8 µM |  |  | full-length Clr4 (residues 1 to 490) (from UniProt O60016 1-490) (enzyme)
